Measurements published in US20030199036.

Biological target: ubiquitin (in vitro thiol-ubiquitination experiment, source not stated)

B1: human pub2 (protein)
chain: MERPYTFKDFLLRPRSHKSRVKGFLRLKMAYMPKNGGQDEENSDQRDDMEHGWEVVDSNDSASQHQEELPPPPLPPGWEEKVDNLGRTYYVNHNNRTTQWHRPSLMDVSSESDNNIRQINQEAAHRRFRSRRHISEDLEPEPSEGGDVPEPWETISEEVNIAGDSLGLALPPPPVSPGSRTSPQELSEELSRRLQITPDSNGEQFSSLIQREPSSRLRSCSVTDAVAEQGHLPPPSVAYVHTTPGLPSGWEERKDAKGRTYYVNHNNRTTTWTRPIMQLAEDGASGSATNSNNHLIEPQIRRPRSLSSPTVTLSAPLEGAKDSPVRRAVKDTLSNPQSPQPSPYNSPKPQHKVTQSFLPPGWEMRIAPNGRPFFIDHNTKTTTWEDPRLKFPVHMRSKTSLNPNDLGPLPPGWEERIHLDGRTFYIDHNSKITQWEDPRLQNPAITGPAVPYSREFKQKYDYFRKKLKKPADIPNRFEMKLHRNNIFEESYRRIMSVKRPDVLKARLWIEFESEKGLDYGGVAREWFFLLSKEMFNPYYGLFEYSATDNYTLQINPNSGLCNEDHLSYFTFIGRVAGLAVFHGKLLDGFFIRPFYKMMLGKQITLNDMESVDSEYYNSLKWILENDPTELDLMFCIDEENFGQTYQVDLKPNGSEIMVTNENKREYIDLVIQWRFVNRVQKQMNAFLEGFTELLPIDLIKIFDENELELLMCGLGDVDVNDWRQHSIYKNGYCPNHPVIQWFWKAVLLMDAEKRIRLLQFVTGTSRVPMNGFAELYGSNGPQLFTIEQWGSPEKLPRAHTCFNRLDLPPYETFEDLREKLLMAVENAQGFEGVD
**Q.** For B1, which thiol-ubiquitination in vitro is on record?
**A.** The thiol-ubiquitination in vitro was “both h-pub1 and h-pub2 can become thiol-ubiquitinated in vitro”.
